± gives the uncertainty stated by the source.

These results are taken from the supplement of paper PMC7877785.

A short description of the data set: self-splicing fitness, log relative to wild type (ln ratio); higher = more splicing; Tetrahymena group I intron in knt gene, E. coli kanamycin selection, DiMSum; sequences stand for … in CUCUCU…GGAGGGAAAAGUUAUCAGGCAUGCACCUGGUAGCUAGUCUUUAAACCAAUAGAUUGCAUCGGUUUAAAAGGCAAGACCGUCAAAUUGCGGGAAAGGGGUCAACAGCCGUUCAGUACCAAGUCUCAGGGGAAACUUUGAGAUGGCCUUGCAAAGGGUAUGGUAAUAAGCUGACGGACAUGGUCCUAACCACGCAGCCAAGUCCUAAGUCAACAGAUCUUCUGUUGAUAUGGAUGCAGUUCACAGACUAAAUGUCGGUCGGGGAAGAUGUAUUCUUCUCAUAAGAUAUAGUCGGACCUCUCCUUAAUGGGAGCUAGCGGAUGAAGUGAUGCAACACUGGAGCCGCUGGGAACUAAUUUGUAUGCGAAAGUAUAUUGAUUAGUUUUGGAGUACUCGUGGUCG
The method, boiled down: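 The eight P1ex-region nucleotides of an intron in the knt kanamycin-resistance gene on pET-22b(+) were all randomised and the library put into E. coli BL21(DE3). Six replicate transformations were grown overnight at 37°C or 30°C on LB agar with or without 25 μg/mL kanamycin, together with 100 μg/mL carbenicillin, 50 μM IPTG and 0.2% rhamnose. Colonies were pooled and amplicon-sequenced on an Illumina HiSeq 2500. Fitness from DiMSum is the error-weighted combination of wild-type-normalised replicate fold changes, kanamycin over none.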

In the case of ACGAAGCAAUAUUACGUUGC, the “self-splicing fitness (ln)” value is -3.45 ± 0.17 (30 °C) and -1.8 ± 0.16 (37 °C).
Regarding GUUCAGCAAUAUUACGUCAA, the “self-splicing fitness (ln)” value runs as follows: (30 °C) -1.86 ± 0.14; (37 °C) -0.976 ± 0.14.
The matching figures for AUGUAGCAAUAUUACGCCGA: -2.44 ± 0.2 and -0.724 ± 0.16.
Take GUAAAGCAAUAUUACGAGUC: the “self-splicing fitness (ln)” value is -2.56 ± 0.15 (30 °C) and -1.38 ± 0.19 (37 °C).
The matching figures for AGUUAGCAAUAUUACGGCCG: -0.855 ± 0.21 and -0.628 ± 0.3.
In the case of UGGCAGCAAUAUUACGGUAC, the “self-splicing fitness (ln)” value (30 °C) was -2.66 ± 0.2 and the “self-splicing fitness (ln)” value (37 °C) is -2.01 ± 0.31.
With CGUUAGCAAUAUUACGUUAA, the “self-splicing fitness (ln)” value (30 °C) was -3.44 ± 0.23 and the “self-splicing fitness (ln)” value (37 °C) was -3.24 ± 0.28.
Turning to UGGUAGCAAUAUUACGAGUG, the “self-splicing fitness (ln)” value is -1.17 ± 0.13 (30 °C) and -0.313 ± 0.16 (37 °C).
As for AACAAGCAAUAUUACGAUAC, the “self-splicing fitness (ln)” value (30 °C) was -3.73 ± 0.19 and the “self-splicing fitness (ln)” value (37 °C) was -1.71 ± 0.12.
The matching figures for CAAAAGCAAUAUUACGGAUA: -3.27 ± 0.31 and -1.81 ± 0.16.
The matching figures for GAUUAGCAAUAUUACGAGGU: -3.27 ± 0.18 and -3.89 ± 0.33.
The matching figures for UAAAAGCAAUAUUACGUAGC: -3.26 ± 0.19 and -2.72 ± 0.18.
On to GAACAGCAAUAUUACGCGCC, for which the “self-splicing fitness (ln)” value (30 °C) is -0.957 ± 0.13 and the “self-splicing fitness (ln)” value (37 °C) is -0.851 ± 0.15.
The matching figures for CACUAGCAAUAUUACGGUAG: -1.99 ± 0.1 and -0.969 ± 0.094.
For CGUGAGCAAUAUUACGAAUG, the “self-splicing fitness (ln)” value (30 °C) was -1.41 ± 0.16 and the “self-splicing fitness (ln)” value (37 °C) is -0.913 ± 0.13.
For the sequence AUGCAGCAAUAUUACGUGUA, the “self-splicing fitness (ln)” value by setting is: (30 °C) -2.34 ± 0.11; (37 °C) -0.835 ± 0.091.
Consider UCUGAGCAAUAUUACGGCAU, for which the “self-splicing fitness (ln)” value (30 °C) is -2.79 ± 0.27.
With CGACAGCAAUAUUACGUUUG, the “self-splicing fitness (ln)” value (30 °C) was -3.09 ± 0.15 and the “self-splicing fitness (ln)” value (37 °C) is -1.19 ± 0.11.
For AUUGAGCAAUAUUACGUGUC, the “self-splicing fitness (ln)” value (30 °C) is -4.77 ± 0.26 and the “self-splicing fitness (ln)” value (37 °C) was -2.53 ± 0.15.
Consider UCACAGCAAUAUUACGAUGA, for which the “self-splicing fitness (ln)” value is -1.29 ± 0.1 (30 °C) and -0.136 ± 0.11 (37 °C).
The matching figures for UCUUAGCAAUAUUACGGUGU: -2.83 ± 0.12 and -1.23 ± 0.12.
In the case of CGCGAGCAAUAUUACGCGAG, the “self-splicing fitness (ln)” value runs as follows: (30 °C) -3.97 ± 0.37; (37 °C) -2.01 ± 0.41.
The matching figures for GCUAAGCAAUAUUACGGAUU: -1.14 ± 0.068 and -1.12 ± 0.092.
On to UCGUAGCAAUAUUACGUGGA, for which the “self-splicing fitness (ln)” value (30 °C) is -2.39 ± 0.16 and the “self-splicing fitness (ln)” value (37 °C) is -2.36 ± 0.13.
The matching figures for GGGCAGCAAUAUUACGUGCA: -1.62 ± 0.079 and 0.116 ± 0.098.
In the case of UUGAAGCAAUAUUACGAGAG, the “self-splicing fitness (ln)” value (30 °C) was -1.5 ± 0.12 and the “self-splicing fitness (ln)” value (37 °C) is -0.926 ± 0.14.
With CCAGAGCAAUAUUACGGACU, the “self-splicing fitness (ln)” value reads like this: (30 °C) -3.62 ± 0.48; (37 °C) -0.487 ± 0.4.
For the sequence UACAAGCAAUAUUACGGAAG, the “self-splicing fitness (ln)” value is, setting by setting: (30 °C) -4.3 ± 0.46; (37 °C) -2.46 ± 0.34.
The matching figures for AAAUAGCAAUAUUACGCAAA: -2.3 ± 0.24 and -1.66 ± 0.21.
Regarding CUGAAGCAAUAUUACGAUAC, the “self-splicing fitness (ln)” value reads like this: (30 °C) -2.44 ± 0.32; (37 °C) -1.94 ± 0.36.
In the case of CAAAAGCAAUAUUACGACUA, the “self-splicing fitness (ln)” value runs as follows: (30 °C) -1.52 ± 0.13; (37 °C) -0.952 ± 0.12.
The matching figures for UCGGAGCAAUAUUACGUAGG: -1.78 ± 0.13 and -0.619 ± 0.15.
As to UCGUAGCAAUAUUACGGCUU, the “self-splicing fitness (ln)” value runs as follows: (30 °C) -2.85 ± 0.46; (37 °C) -1.64 ± 0.33.
AGUCAGCAAUAUUACGCGCU: the “self-splicing fitness (ln)” value runs as follows: (30 °C) -3.02 ± 0.14; (37 °C) -1.86 ± 0.21.
CCCGAGCAAUAUUACGAAAC: the “self-splicing fitness (ln)” value (37 °C) is -0.43 ± 0.4.
For GGACAGCAAUAUUACGCGCG, the “self-splicing fitness (ln)” value is 0.181 ± 0.094 (30 °C) and -0.742 ± 0.11 (37 °C).
The matching figures for CGUGAGCAAUAUUACGGUUU: -3.81 ± 0.18 and -3.28 ± 0.22.
The matching figures for CGGUAGCAAUAUUACGGGAA: -3.45 ± 0.41 and -2.75 ± 0.29.
The matching figures for UACAAGCAAUAUUACGUGAA: -2.42 ± 0.078 and -1.7 ± 0.1.
With GGCGAGCAAUAUUACGGUGG, the “self-splicing fitness (ln)” value by setting is: (30 °C) -3.31 ± 0.24; (37 °C) -2.07 ± 0.22.
The matching figures for UACGAGCAAUAUUACGAUAC: -3.5 ± 0.19 and -1.61 ± 0.13.
The matching figures for UGGAAGCAAUAUUACGCAAC: -3.31 ± 0.32 and -2.05 ± 0.27.
The matching figures for AUUAAGCAAUAUUACGGUCG: -1.59 ± 0.11 and -0.942 ± 0.12.
Consider AGCUAGCAAUAUUACGCCAU, for which the “self-splicing fitness (ln)” value is, setting by setting: (30 °C) -1.92 ± 0.31; (37 °C) -1.91 ± 0.43.
Regarding AACAAGCAAUAUUACGUGAG, the “self-splicing fitness (ln)” value is, setting by setting: (30 °C) -1.74 ± 0.05; (37 °C) -1.01 ± 0.067.
For the sequence GACAAGCAAUAUUACGUCGA, the “self-splicing fitness (ln)” value reads like this: (30 °C) -2.53 ± 0.09; (37 °C) -1.24 ± 0.078.
On to UCGGAGCAAUAUUACGGUUA, for which the “self-splicing fitness (ln)” value was -2.38 ± 0.47 (30 °C) and -2.3 ± 0.28 (37 °C).
For UAUCAGCAAUAUUACGGGGC, the “self-splicing fitness (ln)” value runs as follows: (30 °C) -2.85 ± 0.18; (37 °C) -2.59 ± 0.19.
For the sequence GUCUAGCAAUAUUACGCAUC, the “self-splicing fitness (ln)” value by setting is: (30 °C) -0.727 ± 0.13; (37 °C) 0.171 ± 0.14.
On to UCAGAGCAAUAUUACGGAGC, for which the “self-splicing fitness (ln)” value reads like this: (30 °C) -3.49 ± 0.36; (37 °C) -1.44 ± 0.36.
With GCAUAGCAAUAUUACGCGAA, the “self-splicing fitness (ln)” value is, setting by setting: (30 °C) -2.13 ± 0.1; (37 °C) -1.62 ± 0.12.
The matching figures for CUACAGCAAUAUUACGUUCA: -2.98 ± 0.19 and -0.865 ± 0.098.
Consider GGAGAGCAAUAUUACGUUUU, for which the “self-splicing fitness (ln)” value runs as follows: (30 °C) -3.36 ± 0.23; (37 °C) -1.15 ± 0.3.
The matching figures for UAUCAGCAAUAUUACGACAU: -0.823 ± 0.012 and -0.0787 ± 0.032.
Turning to CAAAAGCAAUAUUACGGUUU, the “self-splicing fitness (ln)” value is -2.93 ± 0.11 (30 °C) and -1.21 ± 0.1 (37 °C).
Regarding GCCUAGCAAUAUUACGUUCG, the “self-splicing fitness (ln)” value (30 °C) is -2.74 ± 0.15 and the “self-splicing fitness (ln)” value (37 °C) was -2.09 ± 0.19.
The matching figures for AAAUAGCAAUAUUACGACCC: -0.239 ± 0.16 and -0.544 ± 0.23.
As to AUCCAGCAAUAUUACGCUAU, the “self-splicing fitness (ln)” value by setting is: (30 °C) -1.51 ± 0.09; (37 °C) -1.26 ± 0.1.
As for GGUUAGCAAUAUUACGGCUU, the “self-splicing fitness (ln)” value was -0.26 ± 0.082 (30 °C) and 1.05 ± 0.096 (37 °C).
Take UGGGAGCAAUAUUACGAUCG: the “self-splicing fitness (ln)” value was -1.33 ± 0.13 (30 °C) and -0.561 ± 0.15 (37 °C).
Turning to CCCGAGCAAUAUUACGAUUG, the “self-splicing fitness (ln)” value (30 °C) was -2.74 ± 0.18 and the “self-splicing fitness (ln)” value (37 °C) was -2.63 ± 0.22.
In the case of AAUGAGCAAUAUUACGCACC, under “37 °C”, the “self-splicing fitness (ln)” value was -1.2 ± 0.48.
CUAUAGCAAUAUUACGAAGU: the “self-splicing fitness (ln)” value by setting is: (30 °C) -3.32 ± 0.25; (37 °C) -1.93 ± 0.28.
Turning to UUUUAGCAAUAUUACGCAUU, the “self-splicing fitness (ln)” value is, setting by setting: (30 °C) -2.39 ± 0.11; (37 °C) -1.27 ± 0.15.
In the case of UGGCAGCAAUAUUACGCACG, the “self-splicing fitness (ln)” value was -1.22 ± 0.18 (30 °C) and 0.284 ± 0.19 (37 °C).
As for ACGCAGCAAUAUUACGAAGG, the “self-splicing fitness (ln)” value is, setting by setting: (30 °C) -2.61 ± 0.13; (37 °C) -1.3 ± 0.14.
With UCUGAGCAAUAUUACGCUCC, for the setting “30 °C”, the “self-splicing fitness (ln)” value is -2.04 ± 0.49.
As for UUCCAGCAAUAUUACGCCUC, the “self-splicing fitness (ln)” value is -1.84 ± 0.21 (30 °C) and -0.711 ± 0.29 (37 °C).
The matching figures for UUUCAGCAAUAUUACGACUG: -2.89 ± 0.2 and -1.53 ± 0.18.
The matching figures for AAUAAGCAAUAUUACGAAGU: -3.44 ± 0.18 and -1.94 ± 0.17.
The matching figures for AACUAGCAAUAUUACGGCAU: -0.42 ± 0.062 and -0.127 ± 0.075.
Regarding UAACAGCAAUAUUACGUCGA, the “self-splicing fitness (ln)” value is -1.03 ± 0.12 (30 °C) and 0.186 ± 0.098 (37 °C).
In the case of UACCAGCAAUAUUACGCCGC, the “self-splicing fitness (ln)” value is, setting by setting: (30 °C) -2.89 ± 0.38; (37 °C) -2.37 ± 0.35.
As to CUCCAGCAAUAUUACGCAAC, the “self-splicing fitness (ln)” value (30 °C) is -3.98 ± 0.43 and the “self-splicing fitness (ln)” value (37 °C) is -3.13 ± 0.42.
As to GCGAAGCAAUAUUACGGACG, the “self-splicing fitness (ln)” value is, setting by setting: (30 °C) -0.0597 ± 0.13; (37 °C) -0.969 ± 0.2.
CCGGAGCAAUAUUACGCUAC: the “self-splicing fitness (ln)” value (30 °C) is -2.55 ± 0.49.
